Here are results for four molecules from patent US20230192902A1, “ABCG2 EFFLUX PUMP-CANCER ANTIGEN MULTI-SPECIFIC ANTIBODIES AND COMPOSITIONS, REAGENTS, KITS AND METHODS RELATED THERETO” (Kenjockety Biotechnology, Inc., priority 2020, published 2023).

First the molecules themselves.
B1: 5D3hVHv1DDKT14KK5D3hVLv1: bispecific ABCG2/CD47 antibody: humanized 5D3 VH version 1 (DD), 5F9 HC (KK), humanized 5D3 VL version 1 common light chain (antibody, V domains shown)
VH 1: EVQLQESGPGLVKPSETLSLTCTVSGFSITSDYAWNWIRQPPGKGLEWMGYINFDGGTTYNPSLRGRITISRDTSKNQFSLKLSSVTAADTAVYYCATFYGAKGTLDYWGQGTLVTVSS
VH 2: QVQLVQSGAEVKKPGASVKVSCKASGYTFTNYNMHWVRQAPGQRLEWMGTIYPGNDDTSYNQKFKDRVTITADTSASTAYMELSSLRSEDTAVYYCARGGYRAMDYWGQGTLVTVSS
VL: DIQLTQSPSSLSASVGDRVTITCKASGYILNRLAWYQQKPGKAPKLLISGATSLETGFPSRFSGSGSGKDYTLTISSLQPEDFATYYCQQYWSTPWTFGGGTKLEIK
B2: 5D3hVHv2DDKT14KK5D3hVLv1: bispecific ABCG2/CD47 antibody: humanized 5D3 VH version 2 (DD), 5F9 HC (KK), humanized 5D3 VL version 1 common light chain (antibody, V domains shown)
VH 1: EVQLQESGPGLVKPSETLSLTCTVSGFSITSDYAWNWIRQPPGKGLEWIGYINFDGGTTYNPSLRGRVTISRDTSKNQFSLKLSSVTAADTAVYYCATFYGAKGTLDYWGQGTLVTVSS
VH 2: QVQLVQSGAEVKKPGASVKVSCKASGYTFTNYNMHWVRQAPGQRLEWMGTIYPGNDDTSYNQKFKDRVTITADTSASTAYMELSSLRSEDTAVYYCARGGYRAMDYWGQGTLVTVSS
VL: DIQLTQSPSSLSASVGDRVTITCKASGYILNRLAWYQQKPGKAPKLLISGATSLETGFPSRFSGSGSGKDYTLTISSLQPEDFATYYCQQYWSTPWTFGGGTKLEIK
B3: 5D3: anti-ABCG2 antibody 5D3; VH SEQ ID NO:5, VL SEQ ID NO:1; tested with human IgG1 constant regions (antibody, V domains shown)
VH: QVQLQESGPGLVKPSQSLSLTCTVTGFSITSDYAWNWIRQFPGKKLEWMGYINFDGGTTYNPSLRGRISITRDTSKNQFFLQLRSVTPEDTATYYCATFYGAKGTLDYWGQGTSVTVSS
VL: DIVLTQSPSSFSVSLGDRVTISCKASGYILNRLAWYQQKPGNAPRLLISGATSLETGFPSRFSGTGSGKDYTLSISSLQTEDVGTYYCQQYWSTPWTFGGGTKLEIR
modifications: human IgG1 constant regions
notes: anti-ABCG2 antibody 5D3; tested with human IgG1 constant regions
B4: 5D3DDKT14KK5D3: bispecific ABCG2/CD47 antibody: HC and LC from anti-ABCG2 antibody 5D3 and a HC from anti-CD47 antibody 5F9; DD/KK charged pair substitutions (antibody, V domains shown)
VH 1: QVQLQESGPGLVKPSQSLSLTCTVTGFSITSDYAWNWIRQFPGKKLEWMGYINFDGGTTYNPSLRGRISITRDTSKNQFFLQLRSVTPEDTATYYCATFYGAKGTLDYWGQGTSVTVSS
VH 2: QVQLVQSGAEVKKPGASVKVSCKASGYTFTNYNMHWVRQAPGQRLEWMGTIYPGNDDTSYNQKFKDRVTITADTSASTAYMELSSLRSEDTAVYYCARGGYRAMDYWGQGTLVTVSS
VL: DIVLTQSPSSFSVSLGDRVTISCKASGYILNRLAWYQQKPGNAPRLLISGATSLETGFPSRFSGTGSGKDYTLSISSLQTEDVGTYYCQQYWSTPWTFGGGTKLEIR

This assay deals with 293T_ABCG2_OX cells (293T cells stably transfected to express ABCG2). Briefly: Topotecan cytotoxicity assay in the presence of antibodies (CellTiter-Glo). Type of assay: cell-based, human. The conditions noted are these: FIG. 1; 293T cells overexpressing ABCG2; 72-96 hr; IC50 values only in the figure. As to the method:
Cytotoxicity Assays. The effect of antibodies on topotecan cytotoxicity was evaluated on 293T_ABCG2_OX cells, 293T cells stably transfected to express ABCG2. Cells were plated in 0.05 mL of Assay Media (DMEM +10% FBS) at 5000 cells/well in white, flat bottom 96-well tissue culture plates. Topotecan was prepared at 2X final assay concentration by serial dilution from 200 uM in assay media containing test antibodies or control antibodies at 100 ug/mL (2X final concentration), or Fumitremorgin C (FTC), a small molecule ABCG2 inhibitor at (2X final concentration). An equivalent volume (0.05 mL) of the topotecan/antibody mixture was added to the 293T_ABCG2_OX cells in 96-well plates. The plates were then incubated at 37° C., in 5% CO2. After about 72-96 hr plates were equilibrated to room temperature and cell viability assessed using Promega® CellTiter-Glo® Luminescent Cell Viability Assay according to the manufacturer’s recommended protocol. Luminescence was measured on a Molecular Devices® FlexStation® 3 Multi-Mode Microplate Reader and data analyzed using GraphPad Prism 8.0 software. Half maximal inhibitory concentration (IC50) is the concentration of drug (topotecan or other chemotherapy cytotoxic agent) where the response (cell growth) is reduced by 50%.
For B1, the “susceptibility of cells to topotecan in the presence of the antibody” value (“susceptibility of cells to topotecan” for short) is listed as “increased susceptibility to topotecan”.

With B2, the “susceptibility of cells to topotecan” value is on record as “increased susceptibility to topotecan”.

Regarding B3, the “susceptibility of cells to topotecan” value is on record as “increased susceptibility to topotecan”.

On to B4, for which the “susceptibility of cells to topotecan” value is “increased susceptibility to topotecan”.
